Reference: patent US20210070876A1 (LES LABORATOIRES SERVIER, published 2021)

Legend:
[1] = target: T1, His-tagged human CD73 ECD (human, UniProt P21589 27-549); test: SEC-MALS, mAb:CD73 1:1
T1 construct: runs as a homodimer of about 124-125 kDa in SEC-MALS; also called CD73-His; CD73-His ECD antigen
T1 sequence: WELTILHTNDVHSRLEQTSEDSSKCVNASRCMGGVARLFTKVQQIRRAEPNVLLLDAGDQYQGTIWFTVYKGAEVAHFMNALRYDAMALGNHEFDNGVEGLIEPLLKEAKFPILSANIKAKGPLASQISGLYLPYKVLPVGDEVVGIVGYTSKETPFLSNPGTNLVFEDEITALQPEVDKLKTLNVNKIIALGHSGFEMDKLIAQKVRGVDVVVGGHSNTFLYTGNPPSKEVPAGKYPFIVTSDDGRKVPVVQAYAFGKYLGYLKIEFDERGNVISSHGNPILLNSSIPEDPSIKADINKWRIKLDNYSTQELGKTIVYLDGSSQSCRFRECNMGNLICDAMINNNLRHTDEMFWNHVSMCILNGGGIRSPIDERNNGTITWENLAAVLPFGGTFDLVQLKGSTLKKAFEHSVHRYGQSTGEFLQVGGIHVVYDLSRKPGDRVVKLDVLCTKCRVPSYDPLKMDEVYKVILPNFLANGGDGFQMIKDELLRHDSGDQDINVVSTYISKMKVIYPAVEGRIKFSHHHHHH
Experimental: (§1) Anti-CD73 antibodies and His-tagged CD73 were analyzed in different ratios as well as individually to analyze the size of complexes formed between CD73 homodimer and anti-CD73 antibodies. Samples were prepared by mixing […] of CD73-His with 900, 450, 90 or 0 μmol of antibody diluted into PBS, pH 7.4. Samples were incubated for 30 min at room temperature followed by separation using a UHPLC UltiMate 3000 (Thermo Scientific) and SEC X-Bridge column (Waters) at a flow rate of 1.2 mL/min. Sample running buffer was 0.01 M Citrate, 250 mM L-Arginine.HCl, pH 6.0. Following HPLC separation, all samples were analyzed using a MiniDAWN TREOS MALS detector (Wyatt) and Optilab T-rEX refractive index detector (Wyatt). Data plots were generated using Graph Pad Prism.

[2] = target: T2, cynomolgus CD73 expressed on cells (cynomolgus monkey (Macaca fascicularis), UniProt A0A2K5V5U7 27-549); test: flow cytometry on CHO-S cells transiently expressing cynomolgus CD73, AF647 anti-human IgG (H+L) secondary, GeoMean
T2 construct: whole, on cells; also called cynomolgus CD73 on CHO-S cells; CD73 on Cynom-K1 cells
T2 sequence: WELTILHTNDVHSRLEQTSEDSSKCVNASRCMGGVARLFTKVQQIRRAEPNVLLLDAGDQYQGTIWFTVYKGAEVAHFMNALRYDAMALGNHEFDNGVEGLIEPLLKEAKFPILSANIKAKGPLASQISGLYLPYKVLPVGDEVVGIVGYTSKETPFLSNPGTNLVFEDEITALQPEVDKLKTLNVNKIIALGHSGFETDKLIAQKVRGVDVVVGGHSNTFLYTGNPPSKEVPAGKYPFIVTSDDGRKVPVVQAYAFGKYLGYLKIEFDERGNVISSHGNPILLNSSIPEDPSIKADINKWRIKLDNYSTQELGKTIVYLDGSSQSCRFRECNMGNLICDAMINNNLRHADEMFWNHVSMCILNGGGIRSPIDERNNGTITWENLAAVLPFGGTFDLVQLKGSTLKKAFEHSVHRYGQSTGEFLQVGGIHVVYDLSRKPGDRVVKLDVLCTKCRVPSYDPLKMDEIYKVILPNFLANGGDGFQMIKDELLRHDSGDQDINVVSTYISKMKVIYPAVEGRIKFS
Experimental: (§2) The anti-CD73 antibodies were incubated with the hamster CHO-S cell line transiently expressing human or cynomolgus CD73 for 30 minutes at 4° C. The cells were washed twice and subsequently incubated for an additional 20 minutes with AF647-conjugated secondary anti-human IgG (H+L) antibody. After the washing step, antibody binding was detected using the high-throughput flow cytometer iQue Screener PLUS (Sartorius) measuring the GeoMean of AF647 signal in each well. Every concentration was assayed in triplicate and a 12-point titration curve was generated for each antibody.

[3] = target: T1, His-tagged human CD73 ECD; test: SEC-MALS, mAb:CD73 0.1:1
Experimental: as §1

[4] = target: T1, His-tagged human CD73 ECD; test: SEC-MALS, mAb:CD73 0.5:1
Experimental: as §1

[5] = target: T3, human CD73 expressed on cells (human, UniProt P21589 27-549); test: flow cytometry on CHO-S cells transiently expressing human CD73, AF647 anti-human IgG (H+L) secondary, GeoMean
T3 construct: also called 5'-NT; human CD73 on CHO-S cells
T3 sequence: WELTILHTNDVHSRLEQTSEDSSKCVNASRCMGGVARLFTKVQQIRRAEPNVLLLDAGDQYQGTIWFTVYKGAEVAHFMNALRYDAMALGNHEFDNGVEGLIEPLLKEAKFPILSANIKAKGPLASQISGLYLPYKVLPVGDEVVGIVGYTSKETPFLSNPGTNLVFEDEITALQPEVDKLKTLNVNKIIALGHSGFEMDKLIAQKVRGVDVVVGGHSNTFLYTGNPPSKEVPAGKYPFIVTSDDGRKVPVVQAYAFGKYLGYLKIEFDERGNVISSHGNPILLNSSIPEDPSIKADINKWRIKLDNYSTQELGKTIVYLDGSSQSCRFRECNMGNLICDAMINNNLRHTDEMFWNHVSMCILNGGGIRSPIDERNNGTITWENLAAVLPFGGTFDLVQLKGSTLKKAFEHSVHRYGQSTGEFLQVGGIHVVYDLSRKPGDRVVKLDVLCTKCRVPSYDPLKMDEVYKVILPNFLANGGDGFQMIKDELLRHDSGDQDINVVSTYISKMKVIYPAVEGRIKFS
Experimental: as §2

molecular mass of complex, Peak 2 (MW, kDa) [1]: 269 kDa
EC50 (read off the curve) [2]: ~4 ng/mL
molecular mass of complex, Peak 2 (MW, kDa) [3]: 282 kDa
molecular mass of complex, Peak 2 (MW, kDa) [4]: 277 kDa
EC50 (read off the curve) [5]: ~5 ng/mL
B1: antibody 21127 (antibody, human IgG1, kappa, L234A L235A, V domains shown)
VH: EVQLVESGGGLVQPGRSLRLSCAASGFTFDDFAMHWVRQAPGKGLEWVSGISWNSGNIGYADSVKGRFTISRDNAKNSLYLQMNSLRAEDTALYYCAKDKSGSPYYYYGMDVWGQGTMVTVSS
VL: DIQMTQSPSSVSASVGDRVTITCRATQGISRRLAWYQQKPGKAPKLLIYAASSLQSGVPSRFSGSGSGTDFTLTISSLQPEDFATYYCQQANSFPLTFGGGTKVEIKR
notes: Fully human IgG1-LALA (L234A/L235A), kappa
